The source of these data is PMC4822050, “Hemi-methylated DNA opens a closed conformation of UHRF1 to facilitate its histone recognition” (Nature Communications, 2016).

Type in all cases: binding
The target of test [1] is T1, Spacer (residues 587–674) of UHRF1 (Homo sapiens, UniProt Q96T88).
T1 construct: Spacer (residues 587–674); GST (N, cleaved yes); made in house; host or cells: E. coli BL21 (DE3)
T1 sequence (Q96T88 587-674): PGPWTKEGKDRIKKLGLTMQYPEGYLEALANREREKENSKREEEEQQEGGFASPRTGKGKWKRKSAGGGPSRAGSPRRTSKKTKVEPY
The test is described as follows: ITC, interaction of UHRF1 domains with the Spacer. The conditions noted are these: for N: ITC stoichiometry. Here is the method:
(§1) For competition ITC experiments: the indicated proteins were pre-incubated with competitive peptide, protein or hm-DNA (at 1:2 molar ratio if not specified) for 10 min followed by ITC measurements as described above. Proteins, DNA and peptides were prepared within ITC buffer containing 10 mM HEPES, pH 8.0, 100 mM NaCl. The data were fitted by software Origin 7.0. All ITC results were summarized in Supplementary Table 2 and raw data were shown in Supplementary Fig. 9.

Test [2] concerns the target T2, TTD (residues 134–285) of UHRF1 (Homo sapiens, UniProt Q96T88).
T2 construct: TTD (residues 134–285); GST (N, cleaved yes); made in house; host or cells: E. coli BL21 (DE3)
T2 sequence (Q96T88 134-285): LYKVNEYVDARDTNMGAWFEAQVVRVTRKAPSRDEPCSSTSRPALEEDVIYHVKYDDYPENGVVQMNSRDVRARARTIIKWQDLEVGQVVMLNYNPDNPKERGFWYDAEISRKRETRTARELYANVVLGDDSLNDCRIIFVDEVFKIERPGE
The test is described as follows: ITC, TTD titrated into Spacer variants and other UHRF1 fragments. The conditions noted are these: TTD in syringe; for N: ITC stoichiometry; for ΔH / ΔS: ITC. Here is the method: as §1
In general terms: Isothermal titration calorimetry measures the heat released or taken up as one component is titrated into another.

Test [3] concerns the target FAM-12bp-HM-DNA. The experiment in a line: Fluorescence polarization, 12-bp FAM-hm-DNA. The conditions noted are these: FP, 25 °C, 20 min; 20 mM HEPES pH 7.5, 175 mM NaCl, 8% glycerol, 1 mM DTT; triplicate; Fig. 5b and Supplementary Table 4. The protocol:
A 6-carboxy-fluorescein (FAM)-labelled primer, 5′-CCATGCGCTGAC-3′, was annealed to a primer 5′-GTCAGXGCATGG-3′ (X=5-methyldeoxycytosine). The hemi-methylated double-strand DNA was used in both electrophoretic mobility-shift assay and FP assays. […] The samples were subjected to a 10% polyacrylamide gel electrophoresis and run in 0.5 × Tris-borate-EDTA buffer at 100 V for 1 h at 4 °C. The results were visualized on Tanon-5200 Chemiluminescent Imaging System (Tanon Science & Technology Co., Ltd).
FP measurements were performed at 25 °C on Synergy 4 Microplate Reader (BioTek). The 16-bp and 20-bp FAM-labelled hm-DNA (lower strand: 5′-GTGTCAGXGCATGGCC-3′ and 5′-CCGTGTCAGXGCATGGCCAT-3′, respectively. X=5-methyldeoxycytosine) were used in the FP experiment to test the effect of DNA length on the protein/DNA interaction. All experiments were performed in triplicate. The curves were fitted by GraphPad Prism 5. For salt concentration-dependent FP experiments, the reaction buffer contains 50 mM or 150 mM NaCl, respectively.

Setting [4] is: ITC, 18 °C, Spacer in syringe, named protein in cell, 10 mM HEPES pH 8.0, 100 mM NaCl.
[5] abbreviates: ITC, Fig. 3e, wild-type or mutant TTD in syringe, Spacer in cell.

B1: TTD-PHDRR295,296DD: mutation R295D/R296D (within the Linker) of TTD–PHD (protein)
chain: LYKVNEYVDARDTNMGAWFEAQVVRVTRKAPSRDEPCSSTSRPALEEDVIYHVKYDDYPENGVVQMNSRDVRARARTIIKWQDLEVGQVVMLNYNPDNPKERGFWYDAEISRKRETRTARELYANVVLGDDSLNDCRIIFVDEVFKIERPGEGSPMVDNPMDDKSGPSCKHCKDDVNRLCRVCACHLCGGRQDPDKQLMCDECDMAFHIYCLDPPLSSVPSEDEWYCPECRND
modifications: left off: GST, end not stated, cleaved
notes: mutation R295D/R296D (within the Linker) of TTD–PHD
What is called Kd is the constant that tells how readily two partners part at equilibrium. In test [1] (Spacer in syringe), B1 showed an N of 0.944±0.0158. Moreover, the affinity in test [1] (setting [4]), expressed as Kd, was 2690 nM. Besides, in test [1] (ITC, Spacer in syringe), the ΔH was -1.399E4±290.7 cal/mol and the ΔS is given as -22.5 cal/mol/deg.

B2: SpacerK648D: mutation K648D of the Spacer (protein)
chain: PGPWTKEGKDRIKKLGLTMQYPEGYLEALANREREKENSKREEEEQQEGGFASPRTGKGKWDRKSAGGGPSRAGSPRRTSKKTKVEPY
modifications: left off: GST, end not stated, cleaved
notes: mutation K648D of the Spacer
In the case of B2, in test [2], the N is 0.659±0.0209, the ΔH is -8.45 ± 0.3659 kcal/mol and the ΔS is reported as -5.07 cal/mol/deg.

B3: SpacerS651D: mutation S651D of the Spacer (protein)
chain: PGPWTKEGKDRIKKLGLTMQYPEGYLEALANREREKENSKREEEEQQEGGFASPRTGKGKWKRKDAGGGPSRAGSPRRTSKKTKVEPY
modifications: left off: GST, end not stated, cleaved
notes: mutation S651D of the Spacer
In the case of B3, in test [2], the N is 0.998±0.0189 and the ΔS is given as -19.3 cal/mol/deg.

B4: SpacerR649A: mutation R649A of the Spacer (protein)
chain: PGPWTKEGKDRIKKLGLTMQYPEGYLEALANREREKENSKREEEEQQEGGFASPRTGKGKWKAKSAGGGPSRAGSPRRTSKKTKVEPY
modifications: left off: GST, end not stated, cleaved
notes: mutation R649A of the Spacer
On to B4, for which, in test [2], the N is given as 1.06±0.0256, the ΔH was -8.277 ± 0.352 kcal/mol and the ΔS was -7.04 cal/mol/deg.

B5: SpacerS639D: mutation S639D of the Spacer, negative control (protein)
chain: PGPWTKEGKDRIKKLGLTMQYPEGYLEALANREREKENSKREEEEQQEGGFADPRTGKGKWKRKSAGGGPSRAGSPRRTSKKTKVEPY
modifications: left off: GST, end not stated, cleaved
notes: mutation S639D of the Spacer, negative control
With B5, in test [2], the N is 1.03±0.0102, the ΔH is given as -1.125E4±153.8 cal/mol and the ΔS is -11.4 cal/mol/deg.

B6: SpacerS666D: mutation S666D of the Spacer, negative control (protein)
chain: PGPWTKEGKDRIKKLGLTMQYPEGYLEALANREREKENSKREEEEQQEGGFASPRTGKGKWKRKSAGGGPSRAGSPRRTDKKTKVEPY
modifications: left off: GST, end not stated, cleaved
notes: mutation S666D of the Spacer, negative control
For the molecule B6, in test [2], the N worked out at 1.08±0.0104, the ΔH was -1.219E4±159.8 cal/mol and the ΔS was -14.9 cal/mol/deg.

B7: Spacer∆650-654: internal deletion of the Spacer, residues 650–654 (protein)
chain: PGPWTKEGKDRIKKLGLTMQYPEGYLEALANREREKENSKREEEEQQEGGFASPRTGKGKWKRGPSRAGSPRRTSKKTKVEPY
modifications: left off: GST, end not stated, cleaved
In the case of B7, in test [2], the N came out at 0.967±0.0122, the ΔH is -6.475 ± 0.1071 kcal/mol and the ΔS is reported as 2.57 cal/mol/deg.

B8: Spacer∆660-664: internal deletion of the Spacer, residues 660–664 (protein)
chain: PGPWTKEGKDRIKKLGLTMQYPEGYLEALANREREKENSKREEEEQQEGGFASPRTGKGKWKRKSAGGGPSRATSKKTKVEPY
modifications: left off: GST, end not stated, cleaved
On to B8, for which, in test [2], the N is on record as 1.01±0.00976 and the ΔS is on record as -10.2 cal/mol/deg.

B9: Spacer∆655-659: internal deletion of the Spacer, residues 655–659 (protein)
chain: PGPWTKEGKDRIKKLGLTMQYPEGYLEALANREREKENSKREEEEQQEGGFASPRTGKGKWKRKSAGGGSPRRTSKKTKVEPY
modifications: left off: GST, end not stated, cleaved
With B9, in test [2], the N is 0.988±0.0147, the ΔH was -7.634 ± 0.1561 kcal/mol and the ΔS is reported as -0.906 cal/mol/deg.

B10: TTD: tandem Tudor domain of human UHRF1 (residues 134–285) (protein, UniProt Q96T88 134-285, looked up, fragment)
chain: LYKVNEYVDARDTNMGAWFEAQVVRVTRKAPSRDEPCSSTSRPALEEDVIYHVKYDDYPENGVVQMNSRDVRARARTIIKWQDLEVGQVVMLNYNPDNPKERGFWYDAEISRKRETRTARELYANVVLGDDSLNDCRIIFVDEVFKIERPGE
modifications: tandem Tudor domain
B10 showed a N in test [1] (Spacer in syringe) of 0.991±0.0134. Further, in test [1] (setting [4]), the Kd is 1480 nM. The molecule also returned a Kd in test [1] (setting [5]) of 1590 nM. Also, in test [1] (ITC, Spacer in syringe), the ΔH was -1.614E4±297.4 cal/mol and the ΔS is reported as -28.7 cal/mol/deg. Moreover, the “interaction between the Spacer and the named protein in the presence of H3K9me3” value in test [1] (ITC, molar ratio of TTD-PHD or TTD: H3K9me3=1:2) is reported as “No detectable interaction”.

B11: TTDD142A,E153A: mutation D142A/E153A of the TTD (protein)
chain: LYKVNEYVAARDTNMGAWFAAQVVRVTRKAPSRDEPCSSTSRPALEEDVIYHVKYDDYPENGVVQMNSRDVRARARTIIKWQDLEVGQVVMLNYNPDNPKERGFWYDAEISRKRETRTARELYANVVLGDDSLNDCRIIFVDEVFKIERPGE
modifications: left off: GST, end not stated, cleaved
notes: mutation D142A/E153A of the TTD
For B11, the KD entry in test [1] (setting [5]) is reported as “abolished”.

B12: Spacer∆665-669: internal deletion of the Spacer, residues 665–669 (protein)
chain: PGPWTKEGKDRIKKLGLTMQYPEGYLEALANREREKENSKREEEEQQEGGFASPRTGKGKWKRKSAGGGPSRAGSPRRKVEPY
modifications: left off: GST, end not stated, cleaved
Regarding B12, in test [2], the N turned out to be 1.06±0.00978 and the ΔS is -12.9 cal/mol/deg.

B13: Spacer∆670-674: deletion of the Spacer, residues 670–674 (protein)
chain: PGPWTKEGKDRIKKLGLTMQYPEGYLEALANREREKENSKREEEEQQEGGFASPRTGKGKWKRKSAGGGPSRAGSPRRTSKKT
modifications: left off: GST, end not stated, cleaved
For B13, in test [2], the N came to 1.1±0.0102 and the ΔS was -9.46 cal/mol/deg.

B14: SRA-Spacer-661: UHRF1 residues 414–661 (protein, UniProt Q96T88 414-661, looked up, fragment)
chain: PSNHYGPIPGIPVGTMWRFRVQVSESGVHRPHVAGIHGRSNDGAYSLVLAGGYEDDVDHGNFFTYTGSGGRDLSGNKRTAEQSCDQKLTNTNRALALNCFAPINDQEGAEAKDWRSGKPVRVVRNVKGGKNSKYAPAEGNRYDGIYKVVKYWPEKGKSGFLVWRYLLRRDDDEPGPWTKEGKDRIKKLGLTMQYPEGYLEALANREREKENSKREEEEQQEGGFASPRTGKGKWKRKSAGGGPSRAGS
Consider B14, for which the equilibrium dissociation constant (Kd) in test [3] was 380 ± 60 nM.

B15: Spacer ∆642-651: internal deletion of the Spacer, residues 642–651 (protein)
chain: PGPWTKEGKDRIKKLGLTMQYPEGYLEALANREREKENSKREEEEQQEGGFASPRAGGGPSRAGSPRRTSKKTKVEPY
modifications: left off: GST, end not stated, cleaved
For the molecule B15, in test [2], the N is recorded as 0.891±0.0733, the ΔH is -3.833 ± 0.4259 kcal/mol and the ΔS came to 9.58 cal/mol/deg.
